Reference: IntAct's records for PubMed 20723757

B1: Monopolin complex subunit CSM1 (Saccharomyces cerevisiae), P25651 (parent)
chain: MDPLTVYKNSVKQQIDSADLLVANLVNENFVLSEKLDTKATEIKQLQKQIDSLNAQVKELKTQTSQQAENSEVIKDLYEYLCNVRVHKSYEDDSGLWFDISQGTHSGGSSDDYSIMDYKLGFVKGQAQVTEVIYAPVLKQRSTEELYSLQSKLPEYLFETLSFPLSSLNQFYNKIAKSLNKKREKKDETE
partner: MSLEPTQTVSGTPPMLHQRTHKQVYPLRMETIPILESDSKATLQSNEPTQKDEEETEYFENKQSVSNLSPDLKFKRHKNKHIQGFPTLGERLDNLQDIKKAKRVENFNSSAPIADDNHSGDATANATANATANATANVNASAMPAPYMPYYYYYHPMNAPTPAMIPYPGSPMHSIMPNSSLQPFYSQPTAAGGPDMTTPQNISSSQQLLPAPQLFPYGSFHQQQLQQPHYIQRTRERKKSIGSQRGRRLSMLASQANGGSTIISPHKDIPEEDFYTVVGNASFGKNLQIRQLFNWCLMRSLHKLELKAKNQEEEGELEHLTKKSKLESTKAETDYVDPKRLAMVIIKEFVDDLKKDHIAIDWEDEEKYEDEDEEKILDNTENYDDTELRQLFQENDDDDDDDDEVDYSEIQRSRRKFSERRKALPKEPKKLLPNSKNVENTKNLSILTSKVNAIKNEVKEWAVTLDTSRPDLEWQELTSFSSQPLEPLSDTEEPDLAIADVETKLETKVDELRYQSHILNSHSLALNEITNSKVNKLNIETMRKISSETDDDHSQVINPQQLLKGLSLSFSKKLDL
B2: Monopolin complex subunit CSM1 (Saccharomyces cerevisiae), P25651 (parent)
chain: B1 chain
partner: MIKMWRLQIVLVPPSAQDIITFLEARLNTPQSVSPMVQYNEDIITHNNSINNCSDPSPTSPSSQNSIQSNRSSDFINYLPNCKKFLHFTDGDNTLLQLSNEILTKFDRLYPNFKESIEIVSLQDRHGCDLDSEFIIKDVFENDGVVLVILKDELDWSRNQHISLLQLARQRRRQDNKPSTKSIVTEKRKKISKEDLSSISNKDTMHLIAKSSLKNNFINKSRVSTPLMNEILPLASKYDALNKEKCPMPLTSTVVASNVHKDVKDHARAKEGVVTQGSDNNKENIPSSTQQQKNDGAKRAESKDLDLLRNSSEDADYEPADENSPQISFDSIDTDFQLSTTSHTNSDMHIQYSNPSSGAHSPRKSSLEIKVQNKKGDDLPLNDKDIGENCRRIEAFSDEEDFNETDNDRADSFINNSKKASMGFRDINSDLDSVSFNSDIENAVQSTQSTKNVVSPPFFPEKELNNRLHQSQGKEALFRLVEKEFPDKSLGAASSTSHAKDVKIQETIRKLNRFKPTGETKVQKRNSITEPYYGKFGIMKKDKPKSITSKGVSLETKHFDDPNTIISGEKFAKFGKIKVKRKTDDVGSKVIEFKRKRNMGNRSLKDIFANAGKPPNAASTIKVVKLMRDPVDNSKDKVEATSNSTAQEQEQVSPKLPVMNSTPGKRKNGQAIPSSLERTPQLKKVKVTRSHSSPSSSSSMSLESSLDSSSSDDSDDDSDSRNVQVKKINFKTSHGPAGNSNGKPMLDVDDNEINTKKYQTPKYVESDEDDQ
B3: Monopolin complex subunit CSM1 (Saccharomyces cerevisiae), P25651 (parent)
chain: B1 chain

Variants of: B1
Settings: with dsn1_yeast DSN1, P40568

effect of a mutation on the interaction	Variant
decreasing interaction	MDPLTVYKNSVKQQIDSADLLVANLVNENFVLSEKLDTKATEIKQLQKQIDSLNAQVKELKTQTSQQAENSEVIKDLYEYLCNVRVHKSYEDDSGLWFDISQGTHSGGSSDDYSIMDYKLGFVKGQAQVTEVIYAPVLKQRSTEELYSLQSKLPEELFETLSFPLSSLNQFYNKIAKSLNKKREKKDETE [Y156E]
decreasing interaction	MDPLTVYKNSVKQQIDSADLLVANLVNENFVLSEKLDTKATEIKQLQKQIDSLNAQVKELKTQTSQQAENSEVIKDLYEYLCNVRVHKSYEDDSGLWFDISQGTHSGGSSDDYSIMDYKLGFVKGQAQVTEVIYAPVLKQRSTEELYSLQSKLPEYLFETDSFPLSSLNQFYNKIAKSLNKKREKKDETE [L161D]
decreasing interaction	MDPLTVYKNSVKQQIDSADLLVANLVNENFVLSEKLDTKATEIKQLQKQIDSLNAQVKELKTQTSQQAENSEVIKDLYEYLCNVRVHKSYEDDSGLWFDISQGTHSGGSSDDYSIMDYKLGFVKGQAQVTEVIYAPVLKQRSTEELYSLQSKLPEYLFETKSFPLSSLNQFYNKIAKSLNKKREKKDETE [L161K]

Variants of: B2
Settings: with tof2_yeast TOF2, Q02208

effect of a mutation on the interaction	Variant
decreasing interaction	MDPLTVYKNSVKQQIDSADLLVANLVNENFVLSEKLDTKATEIKQLQKQIDSLNAQVKELKTQTSQQAENSEVIKDLYEYLCNVRVHKSYEDDSGLWFDISQGTHSGGSSDDYSIMDYKLGFVKGQAQVTEVIYAPVLKQRSTEELYSLQSKLPEYLFETDSFPLSSLNQFYNKIAKSLNKKREKKDETE [L161D]
decreasing interaction	MDPLTVYKNSVKQQIDSADLLVANLVNENFVLSEKLDTKATEIKQLQKQIDSLNAQVKELKTQTSQQAENSEVIKDLYEYLCNVRVHKSYEDDSGLWFDISQGTHSGGSSDDYSIMDYKLGFVKGQAQVTEVIYAPVLKQRSTEELYSLQSKLPEYLFETKSFPLSSLNQFYNKIAKSLNKKREKKDETE [L161K]
decreasing interaction	MDPLTVYKNSVKQQIDSADLLVANLVNENFVLSEKLDTKATEIKQLQKQIDSLNAQVKELKTQTSQQAENSEVIKDLYEYLCNVRVHKSYEDDSGLWFDISQGTHSGGSSDDYSIMDYKLGFVKGQAQVTEVIYAPVLKQRSTEELYSLQSKLPEALFETLSFPLSSLNQFYNKIAKSLNKKREKKDETE [Y156A]
decreasing interaction	MDPLTVYKNSVKQQIDSADLLVANLVNENFVLSEKLDTKATEIKQLQKQIDSLNAQVKELKTQTSQQAENSEVIKDLYEYLCNVRVHKSYEDDSGLWFDISQGTHSGGSSDDYSIMDYKLGFVKGQAQVTEVIYAPVLKQRSTEELYSLQSKLPEELFETLSFPLSSLNQFYNKIAKSLNKKREKKDETE [Y156E]
decreasing interaction	MDPLTVYKNSVKQQIDSADLLVANLVNENFVLSEKLDTKATEIKQLQKQIDSLNAQVKELKTQTSQQAENSEVIKDLYEYLCNVRVHKSYEDDSGLWFDISQGTHSGGSSDDYSIMDYKLGFVKGQAQVTEVIYAPVLKQRSTEELYSLQSKLPEYLFETLSFPLSSLNQFYNEIAKSLNKKREKKDETE [K174E]

Variants of: B3
Settings: with cenpc_yeast MIF2, P35201
Chain of cenpc_yeast MIF2, P35201 (P35201 whole entry): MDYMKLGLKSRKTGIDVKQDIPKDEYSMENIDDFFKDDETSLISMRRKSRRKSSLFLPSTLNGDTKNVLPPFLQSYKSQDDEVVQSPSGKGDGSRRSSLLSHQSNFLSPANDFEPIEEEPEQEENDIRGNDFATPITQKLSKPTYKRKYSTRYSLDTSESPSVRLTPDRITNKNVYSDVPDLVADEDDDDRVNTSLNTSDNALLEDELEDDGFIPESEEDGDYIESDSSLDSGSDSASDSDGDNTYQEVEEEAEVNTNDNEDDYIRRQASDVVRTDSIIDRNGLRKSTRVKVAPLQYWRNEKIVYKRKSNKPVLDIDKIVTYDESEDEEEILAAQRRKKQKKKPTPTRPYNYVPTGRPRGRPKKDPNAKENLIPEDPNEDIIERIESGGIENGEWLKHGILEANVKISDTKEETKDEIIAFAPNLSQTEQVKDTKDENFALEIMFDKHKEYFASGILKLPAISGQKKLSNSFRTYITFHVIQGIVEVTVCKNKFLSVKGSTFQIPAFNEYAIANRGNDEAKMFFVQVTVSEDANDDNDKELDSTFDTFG

effect of a mutation on the interaction	Variant
decreasing interaction	MDPLTVYKNSVKQQIDSADLLVANLVNENFVLSEKLDTKATEIKQLQKQIDSLNAQVKELKTQTSQQAENSEVIKDLYEYLCNVRVHKSYEDDSGLWFDISQGTHSGGSSDDYSIMDYKLGFVKGQAQVTEVIYAPVLKQRSTEELYSLQSKLPEYLFETDSFPLSSLNQFYNKIAKSLNKKREKKDETE [L161D]
